From US20090099029A1, “Methods and substrates for conducting assays” (Invitrogen Corporation, priority 2005, published 2009)

System: kinases of Table 6 on Myelin Basic Protein (MBP)
Experiment: Kinase assay using MBP substrate, ProQ Diamond stain (Table 6)
Format: biochemical
Details: kinase printed on MBP-coated slide; 20 uM ATP, 30° C.; ProQ Diamond Microarray Stain; graded Strong/Weak/Negative
Method in brief: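 Reactions ran at 30° C. with 20 uM ATP, 4 mM MgCl2 and 5% DMSO in HEPES pH 7.5, inhibitor added or omitted. Kinases had been arrayed onto slide-bound dephosphorylated bovine MBP; phospho-signal read after ProQ Diamond staining.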

| Molecule | MBP Kinase Activity |
| --- | --- |
| ZAP70 (protein, left off: small tags and cut ends) MPDPAAHLPFFYGSISRAEAEEHLKLAGMADGLFLLRQCLRSLGGYVLSLVHDVRFHHFPIERQLNGTYAIAGGKAHCGPAELCEFYSRDPDGLPCNLRKPCNRPSGLEPQPGVFDCLRDAMVRDYVRQTWKLEGEALEQAIISQAPQVEKLIATTAHERMPWYHSSLTREEAERKLYSGAQTDGKFLLRPRKEQGTYALSLIYGKTVYHYLISQDKAGKYCIPEGTKFDTLWQLVEYLKLKADGLIYCLKEACPNSSASNASGAAAPTLPAHPSTLTHPQRRIDTLNSDGYTPEPARITSPDKPRPMPMDTSVYESPYSDPEELKDKKLFLKRDNLLIADIELGCGNFGSVRQGVYRMRKKQIDVAIKVLKQGTEKADTEEMMREAQIMHQLDNPYIVRLIGVCQAEALMLVMEMAGGGPLHKFLVGKREEIPVSNVAELLHQVSMGMKYLEEKNFVHRDLAARNVLLVNRHYAKISDFGLSKALGADDSYYTARSAGKWPLKWYAPECINFRKFSSRSDVWSYGVTMWEALSYGQKPYKKMKGPEVMAFIEQGKRMECPPECPPELYALMSDCWIYKWEDRPDFLTVEQRMRACYYSLASKVEGPPGSTQKAEAACA | Negative |
| AKT3 (protein, left off: small tags and cut ends) MSDVTIVKEGWVQKRGEYIKNWRPRYFLLKTDGSFIGYKEKPQDVDLPYPLNNFSVAKCQLMKTERPKPNTFIIRCLQWTTVIERTFHVDTPEEREEWTEAIQAVADRLQRQEEERMNCSPTSQIDNIGEEEMDASTTHHKRKTMNDFDYLKLLGKGTFGKVILVREKASGKYYAMKILKKEVIIAKDEVAHTLTESRVLKNTRHPFLTSLKYSFQTKDRLCFVMEYVNGGELFFHLSRERVFSEDRTRFYGAEIVSALDYLHSGKIVYRDLKLENLMLDKDGHIKITDFGLCKEGITDAATMKTFCGTPEYLAPEVLEDNDYGRAVDWWGLGVVMYEMMCGRLPFYNQDHEKLFELILMEDIKFPRTLSSDAKSLLSGLLIKDPNKRLGGGPDDAKEIMRHSFFSGVNWQDVYDKKLVPPFKPQVTSETDTRYFDEEFTAQTITITPPEKYDEDGMDCMDNERRPHFPQFSYSASGRE | Strong |
| AKT2 (protein, left off: small tags and cut ends) MNEVSVIKEGWLHKRGEYIKTWRPRYFLLKSDGSFIGYKERPEAPDQTLPPLNNFSVAECQLMKTERPRPNTFVIRCLQWTTVIERTFHVDSPDEREEWMRAIQMVANSLKQRAPGEDPMDYKCGSPSDSSTTEEMEVAVSKARAKVTMNDFDYLKLLGKGTFGKVILVREKATGRYYAMKILRKEVIIAKDEVAHTVTESRVLQNTRHPFLTALKYAFQTHDRLCFVMEYANGGELFFHLSRERVFTEERARFYGAEIVSALEYLHSRDVVYRDIKLENLMLDKDGHIKITDFGLCKEGISDGATMKTFCGTPEYLAPEVLEDNDYGRAVDWWGLGVVMYEMMCGRLPFYNQDHERLFELILMEEIRFPRTLSPEAKSLLAGLLKKDPKQRLGGGPSDAKEVMEHRFFLSINWQDVVQKKLLPPFKPQVTSEVDTRYFDDEFTAQSITITPPDRYDSLGLLELDQRTHFPQFSYSASIRE | Strong |
| ADRBK2(GRK3) (protein, UniProt P35626 1-688, looked up) G protein-coupled receptor …: MADLEAVLADVSYLMAMEKSKATPAARASKRIVLPEPSIRSVMQKYLAERNEITFDKIFNQKIGFLLFKDFCLNEINEAVPQVKFYEEIKEYEKLDNEEDRLCRSRQIYDAYIMKELLSCSHPFSKQAVEHVQSHLSKKQVTSTLFQPYIEEICESLRGDIFQKFMESDKFTRFCQWKNVELNIHLTMNEFSVHRIIGRGGFGEVYGCRKADTGKMYAMKCLDKKRIKMKQGETLALNERIMLSLVSTGDCPFIVCMTYAFHTPDKLCFILDLMNGGDLHYHLSQHGVFSEKEMRFYATEIILGLEHMHNRFVVYRDLKPANILLDEHGHARISDLGLACDFSKKKPHASVGTHGYMAPEVLQKGTAYDSSADWFSLGCMLFKLLRGHSPFRQHKTKDKHEIDRMTLTVNVELPDTFSPELKSLLEGLLQRDVSKRLGCHGGGSQEVKEHSFFKGVDWQHVYLQKYPPPLIPPRGEVNAADAFDIGSFDEEDTKGIKLLDCDQELYKNFPLVISERWQQEVTETVYEAVNADTDKIEARKRAKNKQLGHEEDYALGKDCIMHGYMLKLGNPFLTQWQRRYFYLFPNRLEWRGEGESRQNLLTMEQILSVEETQIKDKKCILFRIKGGKQFVLQCESDPEFVQWKKELNETFKEAQRLLRRAPKFLNKPRSGTVELPKPSLCHRNSNGL | Negative |
| CSF1R (protein, left off: small tags and cut ends) YKYKQKPKYQVRWKIIESYEGNSYTFIDPTQLPYNEKWEFPRNNLQFGKTLGAGAFGKVVEATAFGLGKEDAVLKVAVKMLKSTAHADEKEALMSELKIMSHLGQHENIVNLLGACTHGGPVLVITEYCCYGDLLNFLRRKAEAMLGPSLSPGQDPEGGVDYKNIHLEKKYVRRDSGFSSQGVDTYVEMRPVSTSSNDSFSEQDLDKEDGRPLELRDLLHFSSQVAQGMAFLASKNCIHRDVAARNVLLTNGHVAKIGDFGLARDIMNDSNYIVKGNARLPVKWMAPESIFDCVYTVQSDVWSYGILLWEIFSLGLNPYPGILVNSKFYKLVKDGYQMAQPAFAPKNIYSIMQACWALEPTHRPTFQQICSFLQEQAQEDRRERDYTNLPSSSRSGGSGSSSSELEEESSSEHLTCCEQGDIAQPLLQPNNYQFC | Strong |
